B1: EGFRvIII/CD3 TandAb with EGFRvIII binding domain ABC471, domain order (i) VL^CD3(v64)-VH^EGFRvIII-VL^EGFRvIII-VH^CD3(v64) (bispecific antibody, part only; not given: CD3 v64 domain and linkers, not shown: small tags and cut ends)
chain, part: EVQLVQSGAEVKKPGESLKISCKGSGYSFNSYWIGWVRQMPGKGLEWMGIIYPGDSANRYSPSFQGQVTISADKSISTAYLQWSSLKASDTAMYYCARLGSSWTNDAFDIWGQGTLVTVSSSYELTQPPSVSVSPGQTARITCSGDYLPKQYAYWYQQKPGQAPVLVIYKDTERPSGIPERFSGSSSGTTVTLTISGVQAEDEADYYCQSVDSSHPSVVFGGGTKLTVL
B2: EGFRvIII/CD3 TandAb with EGFRvIII binding domain ABC470, domain order (i) VL^CD3(v64)-VH^EGFRvIII-VL^EGFRvIII-VH^CD3(v64) (bispecific antibody, part only; not given: CD3 v64 domain and linkers, not shown: small tags and cut ends)
chain, part: B1 chain, part with A57D, N58T, Y147A, P149D, T172S, H215E, P216T, S217Y
B3: EGFRvIII/CD3 TandAb with EGFRvIII binding domain ABC472, domain order (i) VL^CD3(v64)-VH^EGFRvIII-VL^EGFRvIII-VH^CD3(v64) (bispecific antibody, part only; not given: CD3 v64 domain and linkers, not shown: small tags and cut ends)
chain, part: B1 chain, part with N30G, S31Y, A57H, N58T, Y147A, H215G, P216T, S217Q
B4: EGFRvIII/CD3 TandAb with EGFRvIII binding domain ABC469, domain order (i) VL^CD3(v64)-VH^EGFRvIII-VL^EGFRvIII-VH^CD3(v64) (bispecific antibody, part only; not given: CD3 v64 domain and linkers, not shown: small tags and cut ends)
chain, part: EVQLVQSGAEVKKPGESLKISCKGSGYSFNSYWIGWVRQMPGKGLEWMGIIYPGDSDTRYSPSFQGQVTISADKSISTAYLQWSSLKASDTAMYYCARLGSSWTNDAFDIWGQGTLVTVSSLTQPPSYESVSVSPGQTARITCSGDTLPKQYAYWYQQKPGQAPVLVIYKDSERPSGIPERFSGSSSGTTVTLTISGVQAEDEADYYCQSVDVSGTYVVFGGGTKLTVL
B5: EGFRvIII/CD3 TandAb with EGFRvIII binding domain ABC469, domain order (iv) VH^EGFRvIII-VL^CD3-VH^CD3-VL^EGFRvIII (bispecific antibody, part only; not given: CD3 domain and linkers, not shown: small tags and cut ends)
chain, part: B4 chain, part
B6: EGFRvIII/CD3 TandAb with EGFRvIII binding domain ABC471, domain order (iv) VH^EGFRvIII-VL^CD3-VH^CD3-VL^EGFRvIII (bispecific antibody, part only; not given: CD3 domain and linkers, not shown: small tags and cut ends)
chain, part: B1 chain, part
B7: EGFRvIII/CD3 TandAb with EGFRvIII binding domain ABC470, domain order (iv) VH^EGFRvIII-VL^CD3-VH^CD3-VL^EGFRvIII (bispecific antibody, part only; not given: CD3 domain and linkers, not shown: small tags and cut ends)
chain, part: B1 chain, part with A57D, N58T, Y147A, P149D, T172S, H215E, P216T, S217Y
B8: TandAb EGFRvIII(ABC479)/CD3(v64) (bispecific antibody)
tandem diabody polypeptide (homodimer): DIQMTQSPSSLSASVGDRVTITCRSSTGAVTTSNYANWVQQKPGKAPKALIGGTNKRAPGVPSRFSGSLIGDKATLTISSLQPEDFATYYCALWYSNLWVFGQGTKVEIKQSGAEVKKPGEVQLVESLKISCKGSGYDFSSYWIGWVRQMPGKGLEWMGIIYPGDSDTIYSPSFQGQVTISADKSISTAYLQWSSLKASDTAMYYCARLGSSWTNDAFDIWGQGTLVTVSSSYELTQPPSVSVSPGQTARITCSGAALPEQYAYWYQQKPGQAPVLVIYKDSERPSGIPERFSGSSSGTTVTLTISGVQAEDEADYYCQSVDSSGTFYVFGGGTKLTVLEVQLVESGGGLVQPGGSLRLSCAASGFTFSTYAMNWVRQAPGKGLEWVGRIRSKYNNYATYYADSVKDRFTISRDDSKNSLYLQMNSLKTEDTAVYYCARHGNFGNSYVSYFAYWGQGTLVTVSS
notes: also called domain order (i) VL^CD3-VH^EGFRvIII-VL^EGFRvIII-VH^CD3
B9: TandAb EGFRvIII(ABC479)/CD3, domain order (iv) VH^EGFRvIII-VL^CD3-VH^CD3-VL^EGFRvIII (bispecific antibody, part only; not given: CD3 domain and linkers, part only)
tandem diabody polypeptide (homodimer), part: QSGAEVKKPGEVQLVESLKISCKGSGYDFSSYWIGWVRQMPGKGLEWMGIIYPGDSDTIYSPSFQGQVTISADKSISTAYLQWSSLKASDTAMYYCARLGSSWTNDAFDIWGQGTLVTVSSSYELTQPPSVSVSPGQTARITCSGAALPEQYAYWYQQKPGQAPVLVIYKDSERPSGIPERFSGSSSGTTVTLTISGVQAEDEADYYCQSVDSSGTFYVFGGGTKLTVL
B10: TandAb EGFRvIII(ABC478)/CD3(v64) (bispecific antibody)
tandem diabody polypeptide (homodimer): DIQMTQSPSSLSASVGDRVTITCRSSTGAVTTSNYANWVQQKPGKAPKALIGGTNKRAPGVPSRFSGSLIGDKATLTISSLQPEDFATYYCALWYSNLWVFGQGTKVEIKEVQLVQSGAEVKKPGESLKISCKGSGYSFNSYWIGWVRQMPGKGLEWMGIIYPGDEDTRYSPSFQGQVTISADKSISTAYLQWSSLKASDTAMYYCARLGSSWTNDAFDIWGQGTLVTVSSSYELTQPPSVSVSPGQTARITCSGDALPKQYAYWYQQKPGQAPVLVIYKDTERPSGIPERFSGSSSGTTVTLTISGVQAEDEADYYCQSVDPSGTYVVFGGGTKLTVLEVQLVESGGGLVQPGGSLRLSCAASGFTFSTYAMNWVRQAPGKGLEWVGRIRSKYNNYATYYADSVKDRFTISRDDSKNSLYLQMNSLKTEDTAVYYCARHGNFGNSYVSYFAYWGQGTLVTVSS
notes: as for B8
B11: Li3G30 scFv (parental) (scFv, V domains shown)
VH: EVQLVQSGAEVKKPGESLKISCKGSGYSFTSYWIGWVRQMPGKGLEWMGIIYPGDSDTRYSPSFQGQVTISADKSISTAYLQWSSLKASDTAMYYCARLGSSWTNDAFDIWGQGTMVTVSS
VL: SYELTQPPSVSVSPGQTARITCSGDALPKQYAYWYQQKPGQAPVLVIYKDSERPSGIPERFSGSSSGTTVTLTISGVQAEDEADYYCQSADSSGTPLIVFGTGTKLTVL
notes: One-chain scFv, His-tagged; also called parental scFv; starting clone Li3G30

Numbering of substitutions follows the chain as printed.

The target of the first experiment is EGFRvIII-Fc fusion antigen (human) (UniProt P00533). The experiment is described as follows: ELISA on coated EGFRvIII-Fc; TandAb detected with Protein L-HRP, Abs(450nm) [EGFRvIII binding]. In general terms: ELISA stands for enzyme-linked immunosorbent assay.
On to B1, for which the EC50 (read off the curve) (in general, the concentration at which the effect is half-maximal) came out at 0.8 nM.
The same measure, in the same setting: as for B2, the figure is 0.7 nM; as for B3, 0.8 nM.

For the next experiment, the target named is T1, EGFRvIII expressed on cells (CHO^EGFRvIII, F98^EGFRvIII) (UniProt P00533 25-1210).
T1 construct: whole, on cells; the vIII deletion must be applied; also called deletion mutant EGFRvIII
Put plainly: cell-based or functional assay.
As for B4, the Cytotoxic potency EC50 is 11 nM and the cytotoxicity improvement factor relative to parental TandAb amounted to 2.5 fold.
For the molecule B5, the Cytotoxic potency EC50 is 6.5 nM and the cytotoxicity improvement factor relative to parental TandAb came to 33.3 fold.
On the same counts, the results for B1 are 1.5 nM and 18.2 fold.
Taken in the same sequence, the figures for B6 were 3.1 nM and 69.8 fold.
Taken in the same sequence, the figures for B2 were 4 nM and 6.8 fold.
In the case of B7, the Cytotoxic potency EC50 came out at 3.8 nM and the cytotoxicity improvement factor relative to parental TandAb is 56.9 fold.
On the same counts, the results for B3 are 4.2 nM and 6.5 fold.

The next experiment concerns the target EGFRvIII-Fc fusion antigen (human, UniProt P00533 25-645). Put plainly: ELISA on coated EGFRvIII-Fc; TandAb detected with Protein L-HRP, Abs(450nm) [EGFRvIII binding].
In turn, B4 displayed an EC50 (read off the curve) of 1 nM.
The same measure, in the same setting: as for B5, the figure is 0.6 nM.
On the same count and under the same terms, as for B8, the figure is around 4 nM.
Same read-out and setting: the result for B9 reads 0.9 nM.
B6 displayed an EC50 (read off the curve) of 0.6 nM.
Still for that read-out and setting: as for B7, the figure is 0.9 nM; as for B10, around 1 nM.

The target of the next experiment is CD3γε recombinant antigen (UniProt P09693). Put plainly: ELISA on coated CD3γε antigen; TandAb detected with Protein L-HRP, Abs(450nm) [CD3γε binding].
CD3γε recombinant antigen, sequence (P09693 23-116, chain 1 of 2): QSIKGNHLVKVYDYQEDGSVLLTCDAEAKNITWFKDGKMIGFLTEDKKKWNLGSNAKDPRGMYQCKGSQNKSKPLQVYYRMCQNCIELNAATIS
CD3γε recombinant antigen, sequence (P07766 23-126, chain 2 of 2, further chain): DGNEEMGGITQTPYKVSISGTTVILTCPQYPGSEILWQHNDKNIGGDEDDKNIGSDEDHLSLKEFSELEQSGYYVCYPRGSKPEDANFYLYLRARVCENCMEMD
Consider B5, for which the EC50 (read off the curve) is 7 nM.

For a further experiment, the target named is T1, EGFRvIII expressed on cells …. The experiment is described as follows: flow cytometry on CHO^EGFRvIII cells; scFv detected with anti-His followed by FITC-conj. goat anti-mouse IgG, mean fluorescence intensity. For orientation: Flow cytometry measures light scatter and fluorescence of single cells or particles in a stream.
Experimental: (§1) After a second washing cycle, the cells were incubated with 0.1 mL of 15 μg/mL FITC-conjugated goat anti-mouse IgG antibodies under the same conditions as before. As a control, cells were incubated with the anti-His IgG 13/45/31 followed by the FITC-conjugated goat anti-mouse IgG antibodies without scFvs. The cells were then washed again and resuspended in 0.2 mL of FACS buffer containing 2 μg/mL propidium iodide in order to exclude dead cells. The fluorescence of 1×10⁴ living cells was measured using a Beckman-Coulter FC500 MPL flow cytometer using the MXP software (Beckman-Coulter, Krefeld, Germany) or a Millipore Guava EasyCyte flow cytometer using the Incyte software (Merck Millipore, Schwalbach, Germany). Mean fluorescence intensities of the cell samples were calculated using CXP software (Beckman-Coulter, Krefeld, Germany) or Incyte software (Merck Millipore, Schwalbach, Germany).
(§2) In case of analysis with Beckman-Coulter FC500 MPL flow cytometer 0.5×10⁶ cells/staining and in case of Millipore Guava EasyCyte flow cytometer only 0.25×10⁶ cells/staining were used.
In the case of B11, the “EC50 (read off the curve)” value was around 5 nM.

For the next experiment, the target named is T2, wild type EGFR expressed on cells (CHO^EGFR, F98^EGFR) (human, UniProt P00533 25-1210).
T2 construct: whole, on cells; also called native EGFR; EGFRwt
Put plainly: flow cytometry on F98^EGFR cells; scFv detected with anti-His followed by FITC-conj. goat anti-mouse IgG.
Experimental: as §1, §2
Take B11: the binding result is listed as “no binding (tested: about 3300 nM)”.

The target of a further experiment is T1, EGFRvIII expressed on cells …. Put plainly: flow cytometry on F98^EGFRvIII cells; scFv detected with anti-His followed by FITC-conj. goat anti-mouse IgG, mean fluorescence intensity.
Experimental: as §1, §2
On to B11, for which the “EC50 (read off the curve)” value was around 6 nM.

(Values after US20160152728A1 (AFFEMED, published 2016).)
